The nature of the series: protein stability index of a GFP-peptide fusion (GPS, HEK-293T) (PSI 1-6); higher = more stable. As to conditions: c terminus: a fixed tail appended.

± gives the standard deviation.
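Further: 24-mer peptide tiles fused after GFP, lentivirally expressed, FACS-sorted into six equal bins by GFP/DsRed ratio, decoded by Illumina sequencing, PSI is the read-weighted mean bin number.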

With VGRTGCFIVIDAMLERIKHEKTVD [PTPRD], the protein stability index by setting is: (treatment: DMSO) 2.25 ± 0.34; (treatment: MLN4924 1 uM, 8 h) 2.54 ± 0.26.
Turning to VILAVSYMSQVLEKEMKAQEQRLG [GMPPB], the protein stability index stood at 2.27 ± 0.42 (treatment: DMSO) and 2.08 ± 0.17 (treatment: MLN4924 1 uM, 8 h).
Turning to VISCLEQGEEPWVQVSPEFKDSAG [ZNF75A], the protein stability index is, setting by setting: (treatment: DMSO) 4.59 ± 0.11; (treatment: MLN4924 1 uM, 8 h) 4.68 ± 0.13.
The sequence VIVQLHKLRHLDISRDRLSSYYKF [ZER1] yielded a protein stability index (treatment: DMSO) of 2.76 ± 0.63 and a protein stability index (treatment: MLN4924 1 uM, 8 h) of 2.56 ± 0.45.
On the same counts, the results for VKKCIFLLFINHRLVESTSLRKAI [MLH1] are 3.14 ± 0.47 and 2.97 ± 0.73.
On the same counts, the results for VKKLMRTSTPPPASVINNMLAEIF [ZBED1] are 2.2 ± 0.37 and 2.02 ± 0.21.
In the same order, the values of VKVPTTLAEYCIKTKVPSNDNSSD [UBE2R2] are 4.41 ± 0.21 and 4.63 ± 0.17.
As for VLKKLAQSRRTALATSPITVGDLG [YJU2B], the protein stability index was found to be 2.614 ± 0.015 (treatment: DMSO) and 2.58 ± 0.24 (treatment: MLN4924 1 uM, 8 h).
Take VLKTRFSYAFPKEFPYRMNHILEC [CCNC]: the protein stability index (treatment: DMSO) worked out at 2.59 ± 0.58 and the protein stability index (treatment: MLN4924 1 uM, 8 h) worked out at 2.2 ± 0.24.
Turning to VLLPETQKRQQLSEDTLTIHGLPT [C22orf31], the protein stability index is, setting by setting: (treatment: DMSO) 3.73 ± 0.092; (treatment: MLN4924 1 uM, 8 h) 3.88 ± 0.3.
As for VLNPHPSLGYKEIRKGESRSEALA [CHGA], the protein stability index worked out at 4.14 ± 0.19 (treatment: DMSO) and 4.5 ± 0.3 (treatment: MLN4924 1 uM, 8 h).
In the same order, the values of VNDLRGSDSIAYDKGEKLLRCKLA [ADD1] are 3.34 ± 0.21 and 3.48 ± 0.48.
On the same counts, the results for VNSDYETYMSADDLRINLWNFEIT [PPP2R2B] are 2.19 ± 0.23 and 2.4 ± 0.23.
VNVSDRGGRTALHHAALNGHVEMV [ANKRD44] gave a protein stability index (treatment: DMSO) of 3.39 ± 0.43 and a protein stability index (treatment: MLN4924 1 uM, 8 h) of 3.24 ± 0.093.
On the same counts, the results for VPDSDIKALTTLCDLADRELVVII [ESRRG] are 2.53 ± 0.38 and 2.6 ± 0.45.
On the same counts, the results for VPKVGQRFNRIGLPPKVGSFQLFV [PI4K2A] are 2.31 ± 0.78 and 2.34 ± 0.44.
In the case of VPPGDYLFQVVINPNFEVAESDYS [LOXL2], the protein stability index came to 2.31 ± 0.37 (treatment: DMSO) and 2.12 ± 0.43 (treatment: MLN4924 1 uM, 8 h).
For the sequence VPRTLSPHQYHSVHGVGMVPEWSD [TBX5], the protein stability index was determined as 3.62 ± 0.25 (treatment: DMSO) and 3.77 ± 0.16 (treatment: MLN4924 1 uM, 8 h).
Regarding VQIRRLEAAGESLEEEIRRKQILL [ZC2HC1C], the protein stability index came to 3.31 ± 0.37 (treatment: DMSO) and 3.45 ± 0.37 (treatment: MLN4924 1 uM, 8 h).
As for VRCEALTGELETLKERCAQDACQA [CCDC89], the protein stability index runs as follows: (treatment: DMSO) 4.43 ± 0.39; (treatment: MLN4924 1 uM, 8 h) 4.25 ± 0.18.
For VRDMMANFHLNDLEAPHEDDAEGE [TCF25], the protein stability index is, setting by setting: (treatment: DMSO) 5.48 ± 0.13; (treatment: MLN4924 1 uM, 8 h) 5.3 ± 0.31.
VRRLQALRLEREEYVLLKALALAN [ESRRA]: the protein stability index was determined as 2.18 ± 0.54 (treatment: DMSO) and 2.12 ± 0.31 (treatment: MLN4924 1 uM, 8 h).
Take VRVLDMVAKLESECLKRQGQREPG [FBXO34]: the protein stability index was 4.06 ± 0.29 (treatment: DMSO) and 4.17 ± 0.31 (treatment: MLN4924 1 uM, 8 h).
In the same order, the values of VRYNAEKKKVGNYYTTPIYRFRMK [YJU2B] are 2.57 ± 0.17 and 2.86 ± 0.35.
VSAGGHTLSRPPPAQVPREVLKVQ [TFE3]: the protein stability index is 3.95 ± 0.33 (treatment: DMSO) and 4.21 ± 0.11 (treatment: MLN4924 1 uM, 8 h).
In the same order, the values of VSCPEGRADCASESACSSDSLDEA [PWWP2B] are 5.4 ± 0.38 and 5.41 ± 0.42.
In the same order, the values of VSDDLSSEEDGEARTQMILLRRSV [PHTF1] are 4.8 ± 0.17 and 5.08 ± 0.15.
In turn, VSFVIHNLPIIAKMAAVSKASGRF [SEPHS2] yielded a protein stability index (treatment: DMSO) of 3.08 ± 0.29 and a protein stability index (treatment: MLN4924 1 uM, 8 h) of 2.75 ± 0.61.
In the same order, the values of VSGSWERDQQVEAAQRALVEVLGP [RETREG3] are 3.9 ± 0.33 and 4.08 ± 0.094.
For VSLHQASLGGCSQDFLLFSPEVES [NFE2L1], the protein stability index is, setting by setting: (treatment: DMSO) 2.06 ± 0.12; (treatment: MLN4924 1 uM, 8 h) 2.971 ± 0.02.
In the same order, the values of VSMETYHVTLTLPPTQLEVNLEEI [C2CD2L] are 2.34 ± 0.35 and 2.27 ± 0.31.
In turn, VTEFILLGLTQNPEGQKVLFVTFL [OR4A15] had a protein stability index (treatment: DMSO) of 2.96 ± 0.44 and a protein stability index (treatment: MLN4924 1 uM, 8 h) of 3.27 ± 0.29.
In the same order, the values of VTIPAGATHILVRQQGNPGHRSIY [ADAMTS4] are 2.51 ± 0.12 and 2.32 ± 0.52.
Turning to VTQEPRAKKGRRNQSVEPKKEEPE [ZMYND11], the protein stability index came out at 5.45 ± 0.24 (treatment: DMSO) and 5.6 ± 0.21 (treatment: MLN4924 1 uM, 8 h).
As to VTVLEDLEKGLEPEPQVPGPAHGP [ZNF232], the protein stability index reads like this: (treatment: DMSO) 4.99 ± 0.27; (treatment: MLN4924 1 uM, 8 h) 4.874 ± 0.039.

The values above are taken from the supplement of paper PMC10567573.
